Test results published in the supplement of paper PMC9170038.

Columns and labels:
MS2 coat protein [1] = experiment: apparent KD of MS2 coat protein, switch ON state; designed switch direction (-1 OFF switch, 1 ON switch): -1; higher = weaker reporter binding; settings: FMN input: 0 or 200 uM; Eterna round: R93 (includes R88 designs)
Outline: (§1)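 Apparent KD stands for the median, per design, of fits to normalised cluster binding curves. The curves came from titrating on-chip-transcribed RNA switches on Illumina sequencing clusters with SNAP-549-labelled MS2 coat protein, twofold from 0.7 or 1.5 nM to 3 µM. Buffer was 100 mM Tris-HCl pH 7.5, 80 mM KCl, 4 mM MgCl2, without or with constant ligand.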

MS2 coat protein [2] = experiment: apparent KD of MS2 coat protein, switch OFF state (with FMN for OFF switches, without FMN for ON switches); designed switch direction (-1 OFF switch, 1 ON switch): -1; higher = weaker reporter binding; settings: FMN input: 0 or 200 uM; Eterna round: R93 (includes R88 designs)
Outline: as §1

Sequence | apparent KD of MS2 coat protein (MS2 coat protein [1]) [nM] | apparent KD of MS2 coat protein (MS2 coat protein [2]) [nM]
AAGAGGCGAGGAUAUACAUGAGGAUCACCCAUGUAAUCCGGAUAAGGAAGCAUGUCGUGUAGAAGGUGCCAUGA [water's exclusion 3 last] | 19.2 | 20.2
AAGAAACAUGAGGAUCACCCAUGUCAGGAUAUGCAAGACUGACGAAAGUCAGUCAAAAGCAGAAGGGACUAGAA [7-pair stack] | 28 | 51.5
AAAAAGUGAGGAUAUACAUGAGGAUCACCCAUGUAAAAGGUCGCGGGAGGGAGGGACGGUAGAAGGCGCAAAAA [Excls3-VII] | 15.7 | 22.2
GGUUGGCGAGGAUAUACAUGAGGAUCACCCAUGUGAGAGAAAAAAGUGAGAAAGAAUAGUAGAAGGCGCUGACG [salish99-ex3-40] | 42.5 | 255
ACAUGACAUGAGGAUCACCCAUGUGAGGAUAUGCGAAAAAAAAAAAAAAAAAAAAUUGGCAGAAGGCACAAAAU [Jean Baudrillard] | 202 | 153
AAGAACCUAGGAUAUACAUGAAAGAAAGAAAAGAAAAGAAAACAUGAGGAUCACCCAUGUAGAAGGAGGUAGAA [EteRNA is fun!] | 26.7 | 50.5
AAAAAACAUGAGGAUCACCCAUGUGAGGAUAUUGGUAUUCAGGAUAUAAUCUCAAUAGCGAGAAGGCGCAUAAA [Brourd 613 Mod 16 - Jieux - Exclusion 1] | 20.9 | 18.1
AGUCUGAGAGGAUAUACAUGGAAAAAAAAAGUAAGAUCCCUACAUGAGGAUCACCCAUGUAGAAGGCUCUGACA [Ex2 Design 144: Sub-opt 8] | 41.7 | 22.7
GAAAAACAUGAGGAUCACCCAUGUUAGGAUAUGCUAUGGAAAAUAAAAAAUAAACAUAGCAGAAGGAACAAAAG [Mat - Exclusion 1 - Eli mod - D31] | 20.3 | 36.7
AAGAAGAGAGGAUAUACUAAAGAAAUGAAAAGAAAGAAAGAACAUGAGGAUCACCCAUGUAGAAGGCUCAAGAA [Snaaib] | 27.8 | 18.1
AGUCGGCGAGGAUAUACAUGAGGAUCACCCAUGUGAGAGAAAAAAGUGAGCAAGAAAAGUAGAAGGCGCUGACA [JL Lego Mod 2] | 54.2 | 154
AACUCGUCAGGAUAUGCGCACAGAUAAUACGCUACACAAAAGCAGAAGGGACAUGAGGAUCACCCAUGUAAAUA [JR_Exc004_Sub503] | 35.1 | 22.1
AUCUAGUGAGGAUAUCGUACAAUAUGGAAAACAUAGAGGUACGAGAAGGCACAUGAGGAUCACCCAUGUAAAAC [May 100] | 26.8 | 36.5
AAAUUGUCAGGAUAUCGUAUAACUCUAAAAUAGAGGAGAUACGAGAAGGGACAUGAGGAUCACCCAUGUAAAAC [May 87] | 61.4 | 57.2
AAGAACGUAGGAUAUACAUGAGGAUCACCCAUGUAAAAGAAAGAAAAGGGAAAGAAAAGUAGAAGGACGAAGAA [Usermaatre-setpenre Ramesses II] | 42.1 | 34.4
ACCGAUCGAGGAUAUACAUGAGGAUCACCCAUGUAAAGCAGAAGAAAGGCCUCAGGAUGUAGAAGGCGACGCAA [JR_Exc003_Sub405] | 20.1 | 28.3
AACUGACAUGAGGAUCACCCAUGUCAGGAUAUGACUUCAAAAAAAAAAAAAAAUGAUGUCAGAAGGGACAUGAA [Design 62: Sub-opt L] | 24.4 | 19.3
AGCUGGAGAGGAUAUACGUAGGAAAAAAAAGUCUGAUCCCUACAUGAGGAUCACCCAUGUAGAAGGCUCUGGCA [Ex2 Design 161: Sub-opt 25] | 63.5 | 63.6
AAAAAGGAAGGAUAUACGAACAUGUCGAAAGACGUGAAGGGACAUGAGGAUCACCCAUGUAGAAGGUCCAAAAA [Mat - Exclusion 2 - JL mod - D79] | 47.2 | 45.8
AAUAACAGAGGAUAUACGAAAAUAAGCGGAAACGCAAAGGGACAUGAGGAUCACCCAUGUAGAAGGCUGGAUAA [Tetraloop... 61% 2] | 28.3 | 148
GGGUACGCAGGAUAUACAUGAAAAAAAAAAAAAAAAAAAAAACAUGAGGAUCACCCAUGUAGAAGGGCGUAUCC [hsl_exclusion2] | 92.5 | 314
AAAAAGGAAGGAUAUACGAACAUGUCAAAAGACGUGAAGGGACAUGAGGAUCACCCAUGUAGAAGGUUUAAAAA [JL Wide Open 25] | 39.3 | 18.6

Sequence | apparent KD of MS2 coat protein (MS2 coat protein [1]) [nM] | apparent KD of MS2 coat protein (MS2 coat protein [2]) [nM]
AGCUAGUCAGGAUAUACGAACAUGUAAAAAGAAGUGAAGGGACAUGAGGAUCACCCAUGUAGAAGGGACUAGAA [74%, Web mod - With 3 less C's] | 55.5 | 109
AAAACUGGAGGAUAUACGUACAUGUCGAAAGACGUGAAGGGACAUGAGGAUCACCCAUGUAGAAGGCUAGAAAA [Mat - Exclusion 2 - JL mod - D71] | 53.1 | 87.6
AGCAAGUCAGGAUAUACGAACAAGACAAAAGACGUGAAGGGACAUGAGGAUCACCCAUGUAGAAGGGACUAGCA [74%, Web mod - With 3 less U's] | 59.8 | 61.7
AAGAACCGAGGAUAUACAUGAAAGAAAGAAAAGAAAAGAAAACAUGAGGAUCACCCAUGUAGAAGGCGGAAGAA [EteRNA is fun!] | 27.4 | 35.3
AUCAUGUUAGGAUAUACAAGAAAAGAAAAGAAAGAAAAGAAGUAGAAGGAACAUGAGGAUCACCCAUGUAAGAA [EteRNA is fun!] | 23.6 | 32.3
AAAAAACAUGAGGAUCACCCAUGUGAGGAUAUGCGAAAAUAAAAUAAAUAAAUAAAAAGCAGAAGGCACACCAA [Mat - Exclusion 1 - Eli mod - D60] | 25.3 | 41.1
AAAAAGUUAGGAUAUACAUGAGGAUCACCCAUGUACACAUAUGGAGAAUAUGGUAGUAGUAGAAGGGACAAAAA [EX2 Malc#15] | 27.1 | 31.1
AAAAAACAUGAGGAUCACCCAUGUAAGGAUAUGCUGAAAAACACGGAAAAAACGUGCAGCAGAAGGUACAAAAG [Mat - Exclusion 1 - Eli mod - D90] | 16.1 | 33.9
AAAACGUGAGGAUAUACUAAAAUAAAAAAUUAUGUUAAAAAACAUGAGGAUCACCCAUGUAGAAGGCACAAAAA [AJ 3] | 29.8 | 28.6
AGGAAACAUGAGGAUCACCCAUGUUAGGAUAUGAACGAAAAUAAAUAAAAAUAAAAGUUCAGAAGGAACAAAAA [66%, Wbt, 18] | 27 | 41.9
GUUGUGCGAGGAUAUAUGUGAGGUUUGCCUCAACAGGUAAUACAUGAGGAUCACCCAUGUAGAAGGCGCAUGAG [S1-(23.6);S2-(22.1) [87C]] | 67.3 | 342
AAACAUGGAGGAUAUACAUGAGGAUCACCCAUGUGUAUAAAAAAAUAUACAAAAGAAUGUAGAAGGCCAUGAAA [Ex 3 Snow] | 36.1 | 54.2
CUCAAGUUAGGAUAUUGAAGAAAAGAAGAGAAAGAAAAGAACAAGAAGGAACAUGAGGAUCACCCAUGUAAGAA [EteRNA is fun!] | 22.9 | 21.8
AAGACUAGAGGAUAUACAUGAGGAUCACCCAUGUAACUGUCAGAAAACUGACGGAGAAGUAGAAGGCUAGUCAA [Mat - Exclusion 3 - JL mod - D86] | 16.9 | 21.2
GGAAAGCGAGGAUAUACAUGAGGAUCACCCAUGUAAACAAACAAACAAACAAACAAAUGUAGAAGGCGCAAAAC [Exclusion 3 Strange] | 49 | 50.6
AAGGGACAUGAGGAUCACCCAUGUCAGGAUAUGAUGCGAAUAAAGAAAGAAGAAAGCAUCAGAAGGGACACCAA [58%, Disencluded 3, 4] | 24.4 | 33.7
AAAAAACAUGAGGAUCACCCAUGUGAGGAUAUGCAAAACCCAUAUAAAAAGGGAAAAAGCAGAAGGUACAAAAA [Starry Exclusion 1.2 (wbt round 1 mod)] | 20.7 | 21.3
AAAAAACAUGAGGAUCACCCAUGUGAGGAUAUGCUAAAAAAAUCCGCAUAAAAAAAUAGCAGAAGGCACAUAAA [PK1] | 25 | 44.1
AACGAAUGAGGAUAUACAAACAGAAAAAUCAGACAUAACAGACAUGAGGAUCACCCAUGUAGAAGGCAUAAACA [JR_Exc002_Sub902] | 25.5 | 18.7
AACAGUAGAGGAUAUACAUGAGGAUCACCCAUGUGAGAAACCACUGGCGUACCAGAAAGUAGAAGGCUACUGGA [Moding Maslow Revisited (73) 30] | 103 | 34.6
AAGAACUUAGGAUAUACAAAAUAAAAGAAAAGAAAGAAAGAACAUGAGGAUCACCCAUGUAGAAGGGAGAAGAA [Nimaatre Amenemhat III] | 55.9 | 29.8
AAAAACGUAGGAUAUACAUGAGGAUCACCCAUGUAAAAAAAAAAGGGAGAAAAAAGAAGUAGAAGGACGAAAAA [JR_Exc003_Sub002] | 32.4 | 27.1
